Key:
streptavidin = streptavidin (Streptomyces avidinii, UniProt P22629); conditions: biotin mimicking peptides binding streptavidin; read-out: affinity; cited from earlier work
[1] = target: membrane tethering component (v5-CD22(2Ig)-TM-FRB) (human); experiment: cell-based or functional assay
SKOV3_BCMA cells = conditions: 72 hour time point; T cells expressing CAR, membrane tethering component and signal dampening component
Experimental: FIG. 13—A: Results of an Incucyte assay comparing killing of BCMA+ SKOV3 target cells over time in the presence of varying concentrations of rapamycin by T cells expressing an anti-BCMA CAR alone (Left-hand chart) or expressing an anti-BCMA CAR in combination with a membrane tethering component (v5-CD22(2Ig)-TM-FRB) and a signal dampening component (FKBP12-CD148).
B: A summary of the data presented in A at the 72 hour time-point.
SKOV3 cells, were engineered to be BCMA positive for use as target cells. Primary human T-cells from 2 donors were transduced with two CAR constructs: (i) “Classical” anti-BCMA CAR; (ii) the tri-cistronic “dampenable” BCMA CAR system described above, Non-transduced T-cells and T-cells transduced with the different CAR constructs were challenged 8:1 with SKOV3_BCMA cells in the presence of different concentrations of rapamycin and target cell killing was investigated using an incucyte assay.

Chain of streptavidin (P22629 37-163): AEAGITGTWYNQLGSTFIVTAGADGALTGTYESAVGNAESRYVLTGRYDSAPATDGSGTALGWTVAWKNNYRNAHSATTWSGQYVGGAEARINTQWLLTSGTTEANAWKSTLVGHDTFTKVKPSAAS
Chain of membrane tethering component (v5-CD22(2Ig)-TM-FRB) (human) (chain, as listed by the source): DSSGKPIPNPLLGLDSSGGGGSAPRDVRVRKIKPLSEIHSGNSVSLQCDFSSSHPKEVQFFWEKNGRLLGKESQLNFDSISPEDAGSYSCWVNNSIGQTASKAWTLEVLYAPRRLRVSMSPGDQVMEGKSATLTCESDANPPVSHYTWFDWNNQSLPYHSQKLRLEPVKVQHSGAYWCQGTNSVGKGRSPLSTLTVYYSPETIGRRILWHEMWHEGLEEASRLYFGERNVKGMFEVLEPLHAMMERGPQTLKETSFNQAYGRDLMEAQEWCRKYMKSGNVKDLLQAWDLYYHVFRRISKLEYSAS

Compound | Kd (streptavidin) [nM] | other results
Biotin mimicking peptide, sequence CHPQGPPC (SEQ ID NO: 41) (Biotin mimicking peptide, ccstreptag) | 230 | –
Biotin mimicking peptide, sequence WSHPQFEK (SEQ ID NO: 39) [streptagII] | 72000 | –
Biotin mimicking peptide, sequence DVEAWLDERVPLVET (SEQ ID NO: 36) (Biotin mimicking peptide, long nanotag) | 3.6 | –
signal dampening component (FKBP12-CD148) | – | killing of BCMA+ SKOV3 target cells at the 72 hour time point (incucyte assay); rapamycin concentration above which killing was inhibited [1]: > 0.82 µM; target cells surviving at 50 hours (incucyte assay), T cells co-expressing the CAR with a dampener, with rapamycin [1]: 50%
Biotin mimicking peptide, sequence DVEAWLGAR (SEQ ID NO: 37) (Biotin mimicking peptide, short nanotag) | 17 | –
CO[C@H]1C[C@@H]2CC[C@@H](C)[C@@](O)(O2)C(=O)C(=O)N2CCCC[C@H]2C(=O)O[C@H]([C@H](C)C[C@@H]2CC[C@@H](O)[C@H](OC)C2)CC(=O)[C@H](C)/C=C(\C)[C@@H](O)[C@@H](OC)C(=O)[C@H](C)C[C@H](C)/C=C/C=C/C=C/1C [Rapamycin, rapamycin] | – | tested concentrations of Rapamycin at which killing of target cells was significantly inhibited (SKOV3_BCMA cells): above 0.82 μM

Reference: patent US20200188434A1, “A CELL COMPRISING A CHIMERIC ANTIGEN RECEPTOR (CAR)” (AUTOLUS LIMITED, priority 2017, published 2020)
